Results published in publication PMC3825817 (DNA repair, 2013).

T1: human DNA polymerase δ p125 catalytic subunit (human, UniProt P28340 1-1107)
T1 sequence (looked up): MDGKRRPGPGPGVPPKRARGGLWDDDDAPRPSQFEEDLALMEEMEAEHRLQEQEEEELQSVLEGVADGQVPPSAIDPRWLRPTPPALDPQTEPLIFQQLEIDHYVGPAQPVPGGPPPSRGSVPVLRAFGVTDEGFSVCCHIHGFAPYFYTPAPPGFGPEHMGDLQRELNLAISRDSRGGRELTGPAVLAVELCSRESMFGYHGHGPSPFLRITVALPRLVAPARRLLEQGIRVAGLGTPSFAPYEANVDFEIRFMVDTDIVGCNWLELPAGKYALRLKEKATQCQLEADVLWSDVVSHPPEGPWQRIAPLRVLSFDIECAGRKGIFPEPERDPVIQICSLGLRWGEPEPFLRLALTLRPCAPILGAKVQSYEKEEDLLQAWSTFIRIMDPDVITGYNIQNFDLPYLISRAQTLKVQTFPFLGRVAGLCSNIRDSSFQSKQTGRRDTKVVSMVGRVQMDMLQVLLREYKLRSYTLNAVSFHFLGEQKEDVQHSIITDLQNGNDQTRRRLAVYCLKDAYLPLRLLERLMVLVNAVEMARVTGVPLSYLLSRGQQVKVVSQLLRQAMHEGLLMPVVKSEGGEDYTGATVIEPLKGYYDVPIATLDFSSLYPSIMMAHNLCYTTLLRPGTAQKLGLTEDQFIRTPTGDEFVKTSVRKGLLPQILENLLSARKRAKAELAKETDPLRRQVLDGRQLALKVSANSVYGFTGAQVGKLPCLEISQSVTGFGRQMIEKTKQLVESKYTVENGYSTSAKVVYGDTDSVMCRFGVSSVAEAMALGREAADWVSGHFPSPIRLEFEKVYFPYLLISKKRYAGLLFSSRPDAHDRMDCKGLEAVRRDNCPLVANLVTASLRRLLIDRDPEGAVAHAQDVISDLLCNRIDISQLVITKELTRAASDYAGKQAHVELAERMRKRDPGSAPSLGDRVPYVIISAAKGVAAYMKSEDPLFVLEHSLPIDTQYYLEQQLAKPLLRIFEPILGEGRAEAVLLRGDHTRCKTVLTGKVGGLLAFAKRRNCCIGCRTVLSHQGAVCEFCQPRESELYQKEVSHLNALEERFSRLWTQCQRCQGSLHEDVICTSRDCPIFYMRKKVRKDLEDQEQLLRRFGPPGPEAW


Molecular target: T1, human DNA polymerase δ p125 catalytic …
Assay: immunoaffinity co-purification, SDS-PAGE

Binder	stoichiometry N
human DNA polymerase δ p50 subunit (natural protein) not shown	~1
human DNA polymerase δ p68 subunit (natural protein, UniProt Q15054 1-466, looked up) MADQLYLENIDEFVTDQNKIVTYKWLSYTLGVHVNQAKQMLYDYVERKRKENSGAQLHVTYLVSGSLIQNGHSCHKVAVVREDKLEAVKSKLAVTASIHVYSIQKAMLKDSGPLFNTDYDILKSNLQNCSKFSAIQCAAAVPRAPAESSSSSKKFEQSHLHMSSETQANNELTTNGHGPPASKQVSQQPKGIMGMFASKAAAKTQETNKETKTEAKEVTNASAAGNKAPGKGNMMSNFFGKAAMNKFKVNLDSEQAVKEEKIVEQPTVSVTEPKLATPAGLKKSSKKAEPVKVLQKEKKRGKRVALSDDETKETENMRKKRRRIKLPESDSSEDEVFPDSPGAYEAESPSPPPPPSPPLEPVPKTEPEPPSVKSSSGENKRKRKRVLKSKTYLDGEGCIVTEKVYESESCTDSEEELNMKTSSVHRPPAMTVKKEPREERKGPKKGTAALGKANRQVSITGFFQRK	~1
human DNA polymerase δ p12 subunit (natural protein, UniProt Q9HCU8 1-107, looked up) MGRKRLITDSYPVVKRREGPAGHSKGELAPELGEEPQPRDEEEAELELLRQFDLAWQYGPCTGITRLQRWCRAKQMGLEPPPEVWQVLKTHPGDPRFQCSLWHLYPL	~1
